Residue numbers refer to the chain shown, from its start. Values belong to the binder of their own block, whether it stands above or below them.
Experiments:
[1] = biological target: T1, N-terminally polyhistidine tagged human MARCO ECD (147-520), recombinant (human, UniProt Q9UEW3 147-520); experiment: Biacore; sample stressed 40 C 2 week
T1 construct: also called PI-RG-3000; recombinant human MARCO; not shown: N-terminal polyhistidine tag
T1 sequence: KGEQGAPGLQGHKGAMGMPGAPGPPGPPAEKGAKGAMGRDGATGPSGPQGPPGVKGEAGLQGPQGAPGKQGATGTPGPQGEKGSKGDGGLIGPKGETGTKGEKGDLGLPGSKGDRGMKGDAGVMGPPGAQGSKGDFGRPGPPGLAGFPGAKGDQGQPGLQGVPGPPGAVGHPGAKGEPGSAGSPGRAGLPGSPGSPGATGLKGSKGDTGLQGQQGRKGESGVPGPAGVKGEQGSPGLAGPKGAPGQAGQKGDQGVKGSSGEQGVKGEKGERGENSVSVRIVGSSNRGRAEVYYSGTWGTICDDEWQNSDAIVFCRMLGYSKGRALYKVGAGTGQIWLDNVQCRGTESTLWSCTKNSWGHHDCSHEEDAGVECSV
Experimental: Binding of the stressed samples to recombinant human MARCO was assessed by Biacore.

[2] = biological target: T2, recombinant cynomolgus MARCO protein (cynomolgus, UniProt A0A2K5X0Z2 65-519); experiment: Biacore (SPR), recombinant cyno MARCO
T2 construct: Construct not described; also called cyno MARCO; cynoMARCO
T2 sequence: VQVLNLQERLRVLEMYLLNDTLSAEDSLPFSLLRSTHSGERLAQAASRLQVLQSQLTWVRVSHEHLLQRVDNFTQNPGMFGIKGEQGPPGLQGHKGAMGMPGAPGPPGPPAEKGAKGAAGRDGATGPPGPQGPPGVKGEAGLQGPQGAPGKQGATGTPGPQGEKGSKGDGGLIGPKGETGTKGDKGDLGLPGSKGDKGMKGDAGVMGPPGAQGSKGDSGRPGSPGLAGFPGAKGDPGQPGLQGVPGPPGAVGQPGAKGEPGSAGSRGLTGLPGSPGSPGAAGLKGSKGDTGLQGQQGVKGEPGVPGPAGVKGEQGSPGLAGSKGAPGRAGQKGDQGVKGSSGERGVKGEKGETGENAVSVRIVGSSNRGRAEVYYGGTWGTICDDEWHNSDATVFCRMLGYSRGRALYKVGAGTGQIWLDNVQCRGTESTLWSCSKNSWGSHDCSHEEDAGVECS

[3] = biological target: T1, N-terminally polyhistidine tagged human …; experiment: Biacore (SPR), recombinant human MARCO
Summary of the method: (§1)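 Antibodies were captured by anti-mouse Fc mAb amine-coupled to a CM4 chip (4500 RU target). Running buffer was 10 mM HEPES pH 7.4, 150 mM NaCl, 3 mM EDTA, 0.05% surfactant P20. Injections were at 0.625–10 nM with 90 s association and 600 s dissociation, and constants were fitted in BIAevaluation 3.1.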

[4] = biological target: T1, N-terminally polyhistidine tagged human …; experiment: Biacore (SPR), binding affinity to human MARCO
Summary of the method: as §1

[5] = biological target: T1, N-terminally polyhistidine tagged human …; experiment: Biacore, recombinant human MARCO; control sample
[6] = biological target: T1, N-terminally polyhistidine tagged human …; experiment: Biacore; deamidation stress sample (40 C 2 week)
[7] = biological target: T1, N-terminally polyhistidine tagged human …; experiment: Biacore; isomerization/fragmentation stress sample
[8] = biological target: T1, N-terminally polyhistidine tagged human …; experiment: ELISA on hMARCO ECD with 2 mM Ca2+, A450-A620
[9] = biological target: T3, Human Macrophage Receptor with Collagenous Structure (MARCO), full length, on cells (human, UniProt Q9UEW3 1-520); experiment: flow cytometry, cells overexpressing human MARCO; hu (first of hu/cyn)
T3 construct: the cell type is named under assay; also called huMARCO; HuMARCO
T3 sequence: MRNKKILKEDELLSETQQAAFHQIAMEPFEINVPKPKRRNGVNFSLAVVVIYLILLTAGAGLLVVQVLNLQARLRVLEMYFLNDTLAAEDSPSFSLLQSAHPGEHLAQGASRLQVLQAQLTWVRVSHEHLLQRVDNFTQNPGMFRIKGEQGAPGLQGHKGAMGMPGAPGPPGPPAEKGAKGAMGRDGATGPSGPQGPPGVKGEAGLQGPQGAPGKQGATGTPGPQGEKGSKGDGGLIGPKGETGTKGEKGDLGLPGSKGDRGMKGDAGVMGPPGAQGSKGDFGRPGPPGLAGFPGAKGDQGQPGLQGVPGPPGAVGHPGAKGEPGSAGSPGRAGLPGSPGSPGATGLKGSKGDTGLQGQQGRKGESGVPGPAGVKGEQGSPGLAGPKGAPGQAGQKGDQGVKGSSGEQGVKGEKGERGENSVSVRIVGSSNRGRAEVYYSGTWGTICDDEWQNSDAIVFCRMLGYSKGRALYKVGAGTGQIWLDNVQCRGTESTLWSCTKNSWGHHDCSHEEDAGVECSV

[10] = biological target: T4, Cynomolgus MARCO, full length, on cells (cynomolgus, UniProt A0A2K5X0Z2 1-519); experiment: flow cytometry, cells overexpressing cyno MARCO; cyn (second of hu/cyn)
T4 construct: whole, on cells; also called cyno MARCO; CyMARCO
T4 sequence: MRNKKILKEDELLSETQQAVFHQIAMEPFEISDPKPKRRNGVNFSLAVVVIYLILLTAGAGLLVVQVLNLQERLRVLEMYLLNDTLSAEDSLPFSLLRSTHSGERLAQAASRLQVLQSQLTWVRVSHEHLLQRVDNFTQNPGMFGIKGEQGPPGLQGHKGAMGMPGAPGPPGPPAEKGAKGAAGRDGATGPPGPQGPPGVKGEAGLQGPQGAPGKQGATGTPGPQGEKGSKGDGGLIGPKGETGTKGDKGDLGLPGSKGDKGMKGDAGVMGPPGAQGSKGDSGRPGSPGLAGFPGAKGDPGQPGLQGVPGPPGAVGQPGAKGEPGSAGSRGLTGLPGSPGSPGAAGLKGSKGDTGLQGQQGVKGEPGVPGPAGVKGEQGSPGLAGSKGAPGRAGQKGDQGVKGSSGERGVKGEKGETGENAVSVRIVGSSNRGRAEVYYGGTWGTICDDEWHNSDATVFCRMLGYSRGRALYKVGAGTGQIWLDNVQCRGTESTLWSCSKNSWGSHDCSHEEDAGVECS

[11] = biological target: T1, N-terminally polyhistidine tagged human …; experiment: ELISA readout A450-A620; the panel names no target, the legend says MARCO expressing cells; stable transfection pools
[12] = biological target: T1, N-terminally polyhistidine tagged human …; experiment: ELISA readout A450-A620; the panel names no target, the legend says MARCO expressing cells; transiently made reference antibody
[13] = biological target: T1, N-terminally polyhistidine tagged human …; experiment: ELISA on hMARCO ECD with 2 mM EDTA, A450-A620

- Kd [1]: 0.58 nM
- Kd [2]: 1.79 nM
- Kd [3]: 1.09 nM
- koff [3]: 0.00043 s⁻¹
- Kd [4]: 1.09 nM
- Kd [5]: 0.54 nM
- Kd [6]: 0.66 nM
- Kd [7]: 0.66 nM
- EC50 (read off the curve) [8]: ~1 nM
- EC50 [9]: 0.79 nM
- EC50 [10]: 1.01 nM
- EC50 (read off the curve) [11]: ~0.2 nM
- EC50 (read off the curve) [12]: ~0.2 nM
B1: PI-3025-AB (antibody, human IgG1, kappa)
heavy: not shown
light: DIQMTQSPSSLSASVGDRVTITCRASEGISNDLAWYQQKPGKAPKLLIYAASRLQDGVPSRFSGSGSGTDYTLTISSLQPEDFATYYCQQSYKYPLTFGQGTKLEIKRTVAAPSVFIFPPSDEQLKSGTASVVCLLNNFYPREAKVQWKVDNALQSGNSQESVTEQDSKDSTYSLSSTLTLSKADYEKHKVYACEVTHQGLSSPVTKSFNRGEC
notes: also called PI-3025-AB2

- Kd [1]: 0.36 nM
- Kd [2]: 1.12 nM
- Kd [3]: 0.82 nM
- koff [3]: 0.000334 s⁻¹
- Kd [4]: 0.82 nM
- Kd [5]: 0.24 nM
- Kd [6]: 0.39 nM
- Kd [7]: 0.34 nM
- EC50 (read off the curve) [8]: ~0.8 nM
- EC50 [9]: 0.704 nM
- EC50 [10]: 1.03 nM
- EC50 (read off the curve) [11]: ~0.2 nM
- EC50 (read off the curve) [12]: ~0.2 nM
B2: PI-3041-AB (antibody, human IgG1, kappa)
heavy: not shown
light: B1 light with E27A, Y71F, L78M, L96W
notes: Humanized PI-HX-3011, hIgG1

- EC50 (read off the curve) [8]: ~0.9 nM
- EC50 (read off the curve) [13]: ~0.2 nM
B3: PI-3032-AB (antibody, human IgG1, kappa, V domains shown)
VH: EVQLVESGGGLVQPGGSLRLSCAASKFTFSNYGMNWIRQAPGKGLEWIALIYYNSNNKYYADSVKGRFTISRDNSKNTLYLQMNSLRAEDTAVYYCAKSLTGGSDYFDSWGQGTLVTVSS
VL: DIQMTQSPSSLSASVGDRVTITCRASKSIGTFLAWYQQKPGKAPKLLIYSGSTLESGVPSRFSGSGSGTDFTLTISSLQPEDFATYYCQQHDEYPFTFGQGTKLEIKR
notes: calcium independent
